Reference: the DeepSol protein solubility set

Experiment: soluble on expression in E. coli; label from the status in PepcDB or PDB records

Sequence | soluble on expression in E. coli
MKRGYVLHHRPYRESSALVNLLVDGIGRVDAVARVGSGKRSIKSILQPFQPLIFEFSGKSELKNISQIEAAAPAVPLSGYSLYAGMYINELLMRTLSVQHNAEALFFIYHQALVGLAAQFCESKLRYLELALLRELGAMPSLIRDTQGEPLIPEHCYQLVPELGFQFVLNSRAKHTYQGAMLTALNDNQLLQEQFLEAKRLMRSMLQPLLGNKPLVSRQLFIQAAASKVDGNN | not soluble
MKRHFRPSLIKTEAWEGYEFADKEIKITESTDCYGAVLWPSAMVLCHFLDSHRDQYNLLDKKIIELGAGTGLVTIVTSLLGAQVTSTDLPDVLANLRHNVNRNTRGRCRHEPQVTELIWGQQLEERFPRYTCQYDYILAADVVYGHPYLQELLETFIHLCSDHTVILWAMRFRLDPENRFVHTFQEHFHLEELYDLPSLSIKLYRAHKR | not soluble
MKRHIAMAAGALALALGAQAAHAGPTLDAVKKKGFVQCGLTDGVAGFSATNSKGEWEGMDVDICRAVAAAVFGDAGKFKGTALSTQQRFTALQSGEVDVLLRTVTLTQTRDTSLGLAAVAASFYDGQGVLVRKALGVKSAKELDEATICVQPGTTTELNLADWFRANGIKFTPVVIDKVTEVVRAFESGRCDAFTDDASQLAAVRATQVAKPDDFEILPERFSKEPLGPMVRQGDENWLGIVRWTLFALMEAEEYGITQQNVDEMLKSKNPNVLRILGVTPGAGKNMGLDEKWAYNAIKAVGNYSQIFERNVGKDSRLGLQRGVNALWSQGGAMYPWPIR | not soluble
MKRIGVVLGRREATPLEFWVGVEGDGLLRLDDLVVVEGFHPQVGQVRFFGMVDHVAKVHEGESFDTDTFLAVEGKIPVSLAYVAHVSVTRILPEEFFPPDPGSPVYLAQEEDLELALYYDAMRNQRGSTKLPAGLLKNGEVAYLNLEFLNGVKGGHVNISGISGVAAKTSYATFLLKSLLESGVLEDAHQARVLLFNVKGEDLFFLDKPNARLTEEARKAYARLGLPATPFQSVAFLAPPKKAGYLPDVDTRLEGVEAYHWDLVQFCQRGLLPFLFADRAAMTNLGFLVAHVTEKLKRLAEGQKGPHLQVEDWPGGEASEGMSFDQLGKARLKSFSDLVRYLEYKLLGPETGEGEGDRGWTARQAKGTLEAFVRRLRSSVENVAHLVRGDRPGSPPDPLSGKAQVHVVDLAKLSPQAQMFVVGSLLKDLFERKERGQYRGRVFIVLDELNKYAPREEESPIKDVLLDIAERGRSLGVILIGAQQTASEVERRVVGNAAIRVVGRLDAAEAERPEYRYLPTSFRQRALILPQGAVILHQPEIPVPLLVHFPFPAWATKREEVLEDNSAEALRREFFR | soluble
MKRLADVKISTLDLVPVRHDKGPADSLRNSLNLAQHVEKLGYNRFWVAEHHNMDGIASSATSVLLAYLAGGTSTIRVGAGGIMLPNHAPLVVAEQFGTLASLYPGRIDLGLGRAPGSDQMTARALRRERSGSAEDFPDDVTELMEYLGPRTPDQKVIAVPGSDTNVPIWLLGSSLFSAQLAGMRGLPYAFASHFAPRYMHEAIRVYRNHFQPSAVLDKPYVMLGVPLSAADTDEHAEYLATSVYQRILALMRGHSLMQRPPVESMDGLWLPHEREAVASFLGLAMVGGPDKIRAKLDVLLEQTDADELIFTCDMYEHEDRLRSYEILAQVAQG | not soluble
MKRLLLLGGIGEALALARRLGPAHLYSLAGLGKVPGDLACRVRVGGYGGAEGLAAFIDEQGFDLLVDATHPYAARISQNAVRAARLAGVPCWALRRPGWQAGPGDDWREVADWRELIAALTPFRRPLFTLGREPLEHLGQVPPHQHWTVRCLQGQPAAPRAEVIGARGPFSLDGERALFERLACDVLVSKNSGSQATEPKLQVAREMGLPVLVLARPALPPADREFADGEALLTAIRDWESA | not soluble
MKRLRNKMTTEELAECLGVAKQTVNRWIREKGWKTEKFPGVKGGRARLILVDTQVCEFIQNTPAFHNTPMLMEAEERIAEYAPGARAPAYRQIINAIDNMTDIEQEKVAQFLSREGIRNFLARLDIDESA | not soluble
MKRLRSKMTTEELAECLGVARQTVNRWIREQHWKTEKFPGVKGGRARLIHIDASVREFILNIPAFRKLPAFYQAEEAFAEYANAAHSHAYRQIIDAVENMSAQEQEKLALFLSREGIRGFLTRLGINEAD | not soluble
MKRQRLVDKEWILQFPIEYFIHKEVHELNSTQAQRLVSLFKNGCETAYIARYRGDVHGYLAPEKIRKAMEAYVDAKNLNNKVSSAISTVTAKVAGAQEKIIVTERFKRCEEFDEVTDISKEYSTGTRKTKANIARALGLEPPAQSILDGNFVDFKSLLSNGLKTVKDVEEHLKICLADLINRDEEVRKVSANIDILKKECRVSAKLSREAEKNRKDLEKRGIIEKYKNFIGEKWNAEDIRDHTVSALNKGFDEGIITWKIECEFNDAKYIHPFSRKSVYFGMKNFYQEALAYSIKNYFIPRIERKMANHLKDKAKDRSIVLFGENVDQLLSQEGIRDKFVIALDPGRSKIKTAFLKPTGEVVDMSSFSIYGTRFDGGGVDLLKKWSQQTERKDIVFAIGNGTNTYNTQIAVSDMINSNVFPKEINVSYCIVPEHGASKYSCTPSAIEEFGENAEITEISAVSIGRRLIDPMSEYVKIEPQHLGKGQYQLSVDPKKLNESLLNVVRDRVSFNGVDLNTASKNLLQRINGLNEKTAKEIVQYREQNGRFRSRAELKEVKGIGALTFQQCAGFLTVSRPDDAEDGPPKKKFKKSSTSKEWNPFDETIVHPDDYRTGESLLGKLNVSIEDITGRIKSFSISRLTAEEAKVLNLLQNLTLKTKMKPPPPLRTKVGQIRDLAEGQRFTGTVSNKTDFGVFIDIGVGQDGLAHISHFKDGHYSLMLPSVNDSVEVVIDKIREDGKISLSPVY | not soluble
MKRRCVFMRLSLLDYVPLFEGRTPNDALKHSIKLAQHAEKLGYLRYWVAEHHQVYSVVSSAPEIIMMSILEHTQHIRVGSGGVMLPHYSPYKVAEQFKIMEARHPQRIDMAIGRSPSFKNVNAALNENKNEKLPFNTQITDLLKYFNNDTTQDHRFKSLLATPMVTSFPQLYILGMSNRSAKLAAQRGLPFVIARMGQSETDLHEAISTYRKYFKAYHGEINNAKPYVILATFVVTASNLSRVKQLLHTLQLWLMRINYLNQPKSYPSIETAQNKHYSQRELEKLEKMKSKIIYGMPNDVAEQLTLLHQQFKVDEIIILPHVFGEDARMELIELIANELIPSCSRDEF | not soluble
MKRRDILKGGLAAGALALLPRGHTQGALQNQPSLGRRYRNLIVFVYDGFSWEDYAIAQAYARRRQGRVLALERLLARYPNGLINTYSLTSYVTESSAAGNAFSCGVKTVNGGLAIHADGTPLKPFFAAAKEAGKAVGLVTTTTVTHATPASFVISNPDRNAEERIAEQYLEFGAEVYLGGGDRFFNPARRKDGKDLYAAFAAKGYGVVRTPEELVRSNATRLLGVFADGHVPYEIDRRFQGLGVPSLKEMVQAALPRLAAHRGGFVLQVEAGRIDHANHLNDAGATLWDVLAADEVLELLTAFVDRNPDTLLIVVSDHATGVGGLYGAGRSYLESSQGVDLLEPQRASFEHMLRVLGQAPEASQVKEAFRAMKGVDLEDAEAERVVRAIREKVYWPEGVRQGVQPANTMAWAMVQRDAQKPDRPNIGWSSGQHTASPVMLLLYGQGLRFVNLGLVDNTHVFRLMGEALGLRYQNPVMSEEEALEILKARPQGMRHPEDVWA | soluble
MKRRLDDQESPVYAAQQRRIPGSTEAFPHQHRVLAPAPPVYEAVSETMQSATGIQYSVTPSYQVSAMPQSSGSHGPAIAAVHSSHHHPTAVQPHGGQVVQSHAHPAPPVAPVQGQQQFQRLKVVFSSFSWVKKFIFSRKYWLQLVGCGGTTSNLRY | not soluble
MKRSEKKSMSSALKNGIMERTQPEKVVQMQGTADLSTSKLGTKKYWDELYALELENFRRNPQDTGDCWFSDSDAEQKMIDFLVDNIGAYRISENASVVDLGTGNGHMLFELHQTEFQGKLVGIDYSEESVKLASNIAEATGVDNFISFQQADIFSGDWKPGKYDIVLDKGTLDAISLSGMKINGKLDVVDVYAGVVERILKKDGIFLITSCNFTQDELVKIIETDNLKMWKTIKYPVFQFGGVQGATICSVAFVKQN | soluble
MKRSSTVLAALLALLLVATNDAARHRKYRQTYQDIDSDDDDTSDVQITVFPSEKEVRDGRDVSFECRARTSDNSVYPTVRWARVGGPLPSSAHDSGGRLTINPVQLSDAGTYICVSDYNGNTVEARATLSVVSYGPQEVSNGLRQAGQCMADEKACGNNECVKNDYVCDGEPDCRDRSDEANCPAISRTCEPNEFKCNNNKCVQKMWLCDGDDDCGDNSDELNCNAKPSSSDCKPTEFQCHDRRQCVPSSFHCDGTNDCHDGSDEVGCVQPTVVDPPQTNLQVPRGTTFSLTCKAVAVPEPYINWRLNWGPVCEPPRCLQTSEGGYGTLTIHDAQPVDQGAYTCEAINVKGRVLATPDCIVRVVDDPRPQPPQPPTAPPQRASCDTRGAVTPYPNNYGTCECKSQVTGPNCDQCKPGAFHLSEKSPEGCLKCFCFGVSNDCRSSGHYRTKDRLMFAGDAEGVTISDIEERTIDRNTPFSFFKTGYLTFDGTTDGVAKYWRLPQRFLGDKVTAYGGKMEFEIEFSGSGHHSSEPMVVLKGNQNILVHRVRNQEHVLRSDSPVRITVETYETNYEQLNGAAATREDLLMVLADLDAFLIRATHVAHQTSTSLGDVSWEIAVDRYTPDGLALEVEQCVCPPGYLGTSCEDCAPGYERSGYGPYLGTCVPIQPRHQQCGPGAVAPTAPAQGQCQCKASVIGPNCDRCAPNSFGLAPTNPQGCIPCFCSGVTQQCSASSYRRTSVSIDYARGDRDQLELTTSDSRQPYSPQTRAELSGQAIEFRSFEEARGQTLYWKLPEKFLGDKVTSYGGTLEYTFKFSGNGNSDQSADVILRGNDIALQYKHREPFYADRENKVQIKIIETSWQRVDGQQATREHLLMTLADLDTLLIKSTYNDDCTDSQLLSANLEFAEPYGQGLTAAEVEQCICPPGYVGTSCEDCAPGYSRTGGGLYLGLCEKCECNGHASQCDKEYGYCLDCQHNTEGDQCERCKPGFVGDARRGTPNDCQPEATRAPCHCNNHSPRGCDSFGRCLLCEHNTEGTHCERCKKGYYGDATKGSPYDCTPCPCPGASDCYLDNEGQVACRICPAGLQGRLCNECAPGYTRSNKPAGRVCEPIGQVTNEDITFVQKPHEGDFARNSPSQNSSGQRRHRRRRIRVRSRFYHH | not soluble
MKRSTTDSDLAGDAHNETNKKMKSTEEEEIGFSNLDENLVYEVLKHVDAKTLAMSSCVSKIWHKTAQDERLWELICTRHWTNIGCGQNQLRSVVLALGGFRRLHSLYLWPLSKPNPRARFGKDELKLTLSLLSIRYYEKMSFTKRPLPESK | soluble
MKRVLIPGVILCGADVAQAVDDKNMYMHFFEEMTVYAPVPVPVNGNTHYTSESIERLPTGNGNISDLLRTNPAVRMDSTQSTSLNQGDIRPEKISIHGASPYQNAYLIDGISATNNLNPANESDASSATNISGMSQGYYLDVSLLDNVTLYDSFVPVEFGRFNGGVIDAKIKRFNADDSKVKLGYRTTRSDWLTSHIDENNKSAFNQGSSGSTYYSPDFKKNFYTLSFNQELADNFGVTAGLSRRQSDITRADYVSNDGIVAGRAQYKNVIDTALSKFTWFASDRFTHDLTLKYTGSSRDYNTSTFPQSDREMGNKSYGLAWDMDTQLAWAKLRTTVGWDHISDYTRHDHDIWYTELSCTYGDITGRCTRGGLGHISQAVDNYTFKTRLDWQKFAVGNVSHQPYFGAEYIYSDAWTERHNQSESYVINAAGKKTNHTIYHKGKGRLGIDNYTLYMADRISWRNVSLMPGVRYDYDNYLSNHNISPRFMTEWDIFANQTSMITAGYNRYYGGNILDMGLRDIRNSWTESVSGNKTLTRYQDLKTPYNDELAMGLQQKIGKNVIARANYVYREAHDQISKSSRTDSATKTTITEYNNDGKTKTHSFSLSFELAEPLHIRQVDINPQIVFSYIKSKGNLSLNNGYEESNTGDNQVVYNGNLVSYDSVPVADFNNPLKISLNMDFTHQPSGLVWANTLAWQEARKARIILGKTNAQYISEYSDYKQYVDEKLDSSLTWDTRLSWTPQFLQQQNLTISADILNVLDSKTAVDTTNTGVATYASGRTFWLDVSMKF | not soluble
